Laboratory results reported in patent publication US20180291110A1 (Hoffmann-La Roche, published 2018).

Target: T1, human transferrin receptor (recombinant, for surface plasmon resonance) (human, UniProt P02786 89-760)
T1 construct: also called huTfR; human transferrin receptor-biotinylated
Experiment: SPR 25C

T1 sequence (P02786 89-760 limits assumed): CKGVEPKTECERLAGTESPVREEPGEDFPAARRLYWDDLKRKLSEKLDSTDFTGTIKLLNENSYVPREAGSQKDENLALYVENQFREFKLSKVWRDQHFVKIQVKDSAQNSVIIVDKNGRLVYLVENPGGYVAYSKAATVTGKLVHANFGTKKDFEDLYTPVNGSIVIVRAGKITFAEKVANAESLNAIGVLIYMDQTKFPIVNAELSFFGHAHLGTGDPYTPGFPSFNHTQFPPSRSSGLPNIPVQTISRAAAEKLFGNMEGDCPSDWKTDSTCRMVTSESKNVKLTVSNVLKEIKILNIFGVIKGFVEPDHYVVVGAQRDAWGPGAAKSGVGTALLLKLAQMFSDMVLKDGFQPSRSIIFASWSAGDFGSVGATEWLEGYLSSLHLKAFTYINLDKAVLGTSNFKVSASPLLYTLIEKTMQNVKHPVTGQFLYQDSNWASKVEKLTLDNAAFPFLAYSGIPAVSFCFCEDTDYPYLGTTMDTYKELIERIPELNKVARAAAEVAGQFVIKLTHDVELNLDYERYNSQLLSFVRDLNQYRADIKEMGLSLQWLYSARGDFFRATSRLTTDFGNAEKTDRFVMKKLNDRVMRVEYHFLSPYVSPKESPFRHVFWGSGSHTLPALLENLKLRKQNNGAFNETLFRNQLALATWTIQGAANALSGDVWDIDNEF

| Binder | koff [s⁻¹] |
| --- | --- |
| 2/99 VH21/VL2 (antibody, V domains shown) VH: QSMQESGPGLVKPSQTLSLTCTVSGFSLSSYAMSWIRQHPGKGLEWIGYIWSGGSTDYASWAKSRVTISVDTSKNQVSLKLSSVTAADTAVYYCARRYGTSYPDYGDANGFDPWGQGTLVTVSS VL: DIQMTQSPSSLSASVGDRVTITCRASQSISSYLNWYQQKPGKAPKLLIYRASTLASGVPSRFSGSGSGTDFTLTISSLQPEDFATYYCQQSYSSSNVDNTFGGGTKVEIK | 0.00138 |
| 2/99 VH22/VL3 (antibody, V domains shown) VH: QSMQESGPGLVKPSQTLSLTCTVSGFSLSSYAMSWVRQHPGKGLEWIGYIWSGGSTDYASWAKSRVTISVDTSKNQVSLKLSSVTAADTAVYYCARRYGTSYPDYGDANGFDPWGQGTLVTVSS VL: AYQMTQSPSSLSASVGDRVTITCRASQSISSYLNWYQQKPGKAPKLLIYRASTLASGVPSRFSGSGSGTDFTLTISSLQPEDFATYYCQQSYSSSNVDNTFGGGTKVEIK | 0.00143 |
| 2/99 VH1/VL3 (antibody, V domains shown) VH: VQLVETGGGLIQPGGSLRLSCAASGFSLSSYAMSWVRQAPGKGLEWVGYIWSGGSTDYADSVKGRFTISRDNSKNTLYLQMNSLRAEDTAVYYCARRYGTSYPDYGDANGFDPWGQGTLVTVSS VL: AYQMTQSPSSLSASVGDRVTITCRASQSISSYLNWYQQKPGKAPKLLIYRASTLASGVPSRFSGSGSGTDFTLTISSLQPEDFATYYCQQSYSSSNVDNTFGGGTKVEIK | 0.00431 |
| 2/99 VH23-DANG/VL3 (antibody, V domains shown) VH: QSMQESGPGLVKPSQTLSLTCTVSGFSLSSYAMSWIRQHPGKGLEWIGYIWSGGSTDYASWAKSRVTISKTSTTVSLKLSSVTAADTAVYYCARRYGTSYPDYGDANGFDPWGQGTLVTVSS VL: AYQMTQSPSSLSASVGDRVTITCRASQSISSYLNWYQQKPGKAPKLLIYRASTLASGVPSRFSGSGSGTDFTLTISSLQPEDFATYYCQQSYSSSNVDNTFGGGTKVEIK | 0.000783 |
| 2/99 VH6/VL3 (antibody, V domains shown) VH: QQLVETGGGLIQPGGSLRLSCAASGFSLSSYAMSWVRQAPGKGLEWIGYIWSGGSTDYADSVKGRFTISRDNSKNTLYLQMNSLRAEDTAVYYCARRYGTSYPDYGDANGFDPWGQGTLVTVSS VL: AYQMTQSPSSLSASVGDRVTITCRASQSISSYLNWYQQKPGKAPKLLIYRASTLASGVPSRFSGSGSGTDFTLTISSLQPEDFATYYCQQSYSSSNVDNTFGGGTKVEIK | 0.00282 |
| 2/99 VH8/VL3 (antibody, V domains shown) VH: QQLVETGGGLIQPGGSLRLSCAASGFSLSSYAMSWVRQAPGKGLEWIGYIWSGGSTDYASWAKGRFTISKTSTTLYLQMNSLRAEDTAVYYCARRYGTSYPDYGDANGFDPWGQGTLVTVSS VL: AYQMTQSPSSLSASVGDRVTITCRASQSISSYLNWYQQKPGKAPKLLIYRASTLASGVPSRFSGSGSGTDFTLTISSLQPEDFATYYCQQSYSSSNVDNTFGGGTKVEIK | 0.001 |
| 2/99 VH19/VL3 (antibody, V domains shown) VH: QSMQESGPGLVKPSQTLSLTCTVSGFSLSSYAMSWIRQHPGKGLEWIGYIWSGGSTDYAPSLKSRVTISVDTSKNQFSLKLSSVTAADTAVYYCARRYGTSYPDYGDANGFDPWGQGTLVTVSS VL: AYQMTQSPSSLSASVGDRVTITCRASQSISSYLNWYQQKPGKAPKLLIYRASTLASGVPSRFSGSGSGTDFTLTISSLQPEDFATYYCQQSYSSSNVDNTFGGGTKVEIK | 0.001 |
| 2/99 VH17/VL3 (antibody, V domains shown) VH: QQLQESGPGLVKPSETLSLTCTVSGFSLSSYAMSWVRQPPGKGLEWIGYIWSGGSTDYNPSLKSRVTISKDTSKNQVSLKLSSVTAADTAVYYCARRYGTSYPDYGDANGFDPWGPGTLVTVSS VL: AYQMTQSPSSLSASVGDRVTITCRASQSISSYLNWYQQKPGKAPKLLIYRASTLASGVPSRFSGSGSGTDFTLTISSLQPEDFATYYCQQSYSSSNVDNTFGGGTKVEIK | 0.000843 |
| 2/99 VH11/VL3 (antibody, V domains shown) VH: QQLLESGGGLVQPGGSLRLSCAASGFSLSSYAMSWVRQAPGKGLEWVGYIWSGGSTDYADSVKGRFTISRDNSKNTLYLQMNSLRAEDTAVYYCARRYGTSYPDYGDANGFDPWGQGTLVTVSS VL: AYQMTQSPSSLSASVGDRVTITCRASQSISSYLNWYQQKPGKAPKLLIYRASTLASGVPSRFSGSGSGTDFTLTISSLQPEDFATYYCQQSYSSSNVDNTFGGGTKVEIK | 0.00565 |
| 2/99 VH1/VL4 (antibody, V domains shown) VH: VQLVETGGGLIQPGGSLRLSCAASGFSLSSYAMSWVRQAPGKGLEWVGYIWSGGSTDYADSVKGRFTISRDNSKNTLYLQMNSLRAEDTAVYYCARRYGTSYPDYGDANGFDPWGQGTLVTVSS VL: AYQMTQSPSSLSASVGDRVTITCRASQSISSYLSWYQQKPGKAPKLLIYRASTLASGVPSRFSGSGSGTDFTLTISSLQPEDFATYYCQQSYSSSNVDNTFGGGTKVEIK | 0.00256 |
| 2/99 VH22/VL2 (antibody, V domains shown) VH: QSMQESGPGLVKPSQTLSLTCTVSGFSLSSYAMSWVRQHPGKGLEWIGYIWSGGSTDYASWAKSRVTISVDTSKNQVSLKLSSVTAADTAVYYCARRYGTSYPDYGDANGFDPWGQGTLVTVSS VL: DIQMTQSPSSLSASVGDRVTITCRASQSISSYLNWYQQKPGKAPKLLIYRASTLASGVPSRFSGSGSGTDFTLTISSLQPEDFATYYCQQSYSSSNVDNTFGGGTKVEIK | 0.00126 |
| 2/99 VH9/VL3 (antibody, V domains shown) VH: QQLLESGGGLVQPGGSLRLSCAASGFTFSSYAMSWVRQAPGKGLEWVGYIWSGGSTDYADSVKGRFTISRDNSKNTLYLQMNSLRAEDTAVYYCAKRYGTSYPDYGDANGFDPWGQGTLVTVSS VL: AYQMTQSPSSLSASVGDRVTITCRASQSISSYLNWYQQKPGKAPKLLIYRASTLASGVPSRFSGSGSGTDFTLTISSLQPEDFATYYCQQSYSSSNVDNTFGGGTKVEIK | 0.00417 |

Next, values leading:

| koff [s⁻¹] | Binder |
| --- | --- |
| 0.00316 | 2/99 VH5/VL3 (antibody, V domains shown) VH: QSMEETGGGLIQPGGSLRLSCAASGFSLSSYAMSWVRQAPGKGLEWVGYIWSGGSTDYADSVKGRFTISRDNSKNTLYLQMNSLRAEDTAVYYCARRYGTSYPDYGDANGFDPWGPGTLVTVSS VL: AYQMTQSPSSLSASVGDRVTITCRASQSISSYLNWYQQKPGKAPKLLIYRASTLASGVPSRFSGSGSGTDFTLTISSLQPEDFATYYCQQSYSSSNVDNTFGGGTKVEIK |
| 0.00384 | 2/99 VH2/VL3 (antibody, V domains shown) VH: EVQLVETGGGLIQPGGSLRLSCAASGFSLSSYAMSWVRQAPGKGLEWVGYIWSGGSTDYADSVKGRFTISRDNSKNTLYLQMNSLRAEDTAVYYCARRYGTSYPDYGDANGFDPWGQGTLVTVSS VL: AYQMTQSPSSLSASVGDRVTITCRASQSISSYLNWYQQKPGKAPKLLIYRASTLASGVPSRFSGSGSGTDFTLTISSLQPEDFATYYCQQSYSSSNVDNTFGGGTKVEIK |
| 0.00277 | 2/99 VH13/VL3 (antibody, V domains shown) VH: QVQLQESGPGLVKPSETLSLTCTVSGFSLSSYAMSWIRQPPGKGLEWIGYIWSGGSTDYNPSLKSRVTISVDTSKNQVSLKLSSVTAADTAVYYCARRYGTSYPDYGDANGFDPWGQGTLVTVSS VL: AYQMTQSPSSLSASVGDRVTITCRASQSISSYLNWYQQKPGKAPKLLIYRASTLASGVPSRFSGSGSGTDFTLTISSLQPEDFATYYCQQSYSSSNVDNTFGGGTKVEIK |
| 0.00665 | 2/99 VH18/VL3 (antibody, V domains shown) VH: QVQLQESGPGLVKPSQTLSLTCTVSGFSLSSYAMSWIRQHPGKGLEWIGYIWSGGSTDYAPSLKSRVTISVDTSKNQFSLKLSSVTAADTAVYYCARRYGTSYPDYGDANGFDPWGQGTLVTVSS VL: AYQMTQSPSSLSASVGDRVTITCRASQSISSYLNWYQQKPGKAPKLLIYRASTLASGVPSRFSGSGSGTDFTLTISSLQPEDFATYYCQQSYSSSNVDNTFGGGTKVEIK |
| 0.00145 | 2/99 VH7/VL3 (antibody, V domains shown) VH: QQLVETGGGLIQPGGSLRLSCAASGFSLSSYAMSWVRQAPGKGLEWIGYIWSGGSTDYASWAKGRFTISRDNSKNTLYLQMNSLRAEDTAVYYCARRYGTSYPDYGDANGFDPWGQGTLVTVSS VL: AYQMTQSPSSLSASVGDRVTITCRASQSISSYLNWYQQKPGKAPKLLIYRASTLASGVPSRFSGSGSGTDFTLTISSLQPEDFATYYCQQSYSSSNVDNTFGGGTKVEIK |
| 0.00715 | 2/99 VH20/VL3 (antibody, V domains shown) VH: QSMQESGPGLVKPSQTLSLTCTVSGFSLSSYAMSWIRQHPGKGLEWIGYIWSGGSTDYAPSLKSRVTISVDTSKNQVSLKLSSVTAADTAVYYCARRYGTSYPDYGDANGFDPWGQGTLVTVSS VL: AYQMTQSPSSLSASVGDRVTITCRASQSISSYLNWYQQKPGKAPKLLIYRASTLASGVPSRFSGSGSGTDFTLTISSLQPEDFATYYCQQSYSSSNVDNTFGGGTKVEIK |
| 0.00207 | 2/99 VH15/VL3 (antibody, V domains shown) VH: QQLQESGPGLVKPSETLSLTCTVSGFSLSSYAMSWVRQPPGKGLEWIGYIWSGGSTDYNPSLKSRVTISVDTSKNQVSLKLSSVTAADTAVYYCARRYGTSYPDYGDANGFDPWGQGTLVTVSS VL: AYQMTQSPSSLSASVGDRVTITCRASQSISSYLNWYQQKPGKAPKLLIYRASTLASGVPSRFSGSGSGTDFTLTISSLQPEDFATYYCQQSYSSSNVDNTFGGGTKVEIK |
| 0.00586 | 2/99 VH12/VL3 (antibody, V domains shown) VH: QVQLQESGPGLVKPSETLSLTCTVSGFSLSSYAMSWIRQPPGKGLEWIGYIWSGGSTDYNPSLKSRVTISVDTSKNQFSLKLSSVTAADTAVYYCARRYGTSYPDYGDANGFDPWGQGTLVTVSS VL: AYQMTQSPSSLSASVGDRVTITCRASQSISSYLNWYQQKPGKAPKLLIYRASTLASGVPSRFSGSGSGTDFTLTISSLQPEDFATYYCQQSYSSSNVDNTFGGGTKVEIK |
| 0.00194 | 2/99 VH21/VL3 (antibody, V domains shown) VH: QSMQESGPGLVKPSQTLSLTCTVSGFSLSSYAMSWIRQHPGKGLEWIGYIWSGGSTDYASWAKSRVTISVDTSKNQVSLKLSSVTAADTAVYYCARRYGTSYPDYGDANGFDPWGQGTLVTVSS VL: AYQMTQSPSSLSASVGDRVTITCRASQSISSYLNWYQQKPGKAPKLLIYRASTLASGVPSRFSGSGSGTDFTLTISSLQPEDFATYYCQQSYSSSNVDNTFGGGTKVEIK |
| 0.00173 | 2/99 VH16/VL3 (antibody, V domains shown) VH: QQLQESGPGLVKPSETLSLTCTVSGFSLSSYAMSWVRQPPGKGLEWIGYIWSGGSTDYNPSLKSRVTISVDTSKNQVSLKLSSVTAADTAVYYCARRYGTSYPDYGDANGFDPWGPGTLVTVSS VL: AYQMTQSPSSLSASVGDRVTITCRASQSISSYLNWYQQKPGKAPKLLIYRASTLASGVPSRFSGSGSGTDFTLTISSLQPEDFATYYCQQSYSSSNVDNTFGGGTKVEIK |
